In the RNAGym collection of RNA variant scans (doi:10.1073/pnas.2313332121):
Variants at the floor of the assay were thinned out.

B1: TPR 5TU (parent)
chain: GGAUCUUCUCGAUCUAACAAAAAAGACAAAUCUGCCACAAAGCUUGAGAGCAUCUUCGGAUGCAGAGGCGGCAGCCUUCGGUGGCGCGAUAGCGCCAACGUUCUCAACUAUGACACGCAAAACGCGUGCUCCGUUGAAUGGAGUUUAUCAUG

Variants of: B1
Assay: polymerase ribozyme fitness, log enrichment relative to wild type (log ratio); higher = more active; in vitro selection for triplet polymerase activity
Method in brief: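 Genotype fitness is the logarithm of its enrichment divided by wild-type enrichment, using inverse-variance-weighted averages of replicates. That logarithm is base 2. Enrichment was measured by Illumina sequencing of input and output libraries from one triplicate in vitro selection round, with frozen incubation at −7 °C, on PCR-built, transcribed mutant libraries of each subunit of a heterodimeric triplet polymerase ribozyme, retaining genotypes with ≥10 input reads and ≥1 read per output.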

Row | Variant | polymerase ribozyme fitness (log ratio)
1 | GGAUCUUCUCGAUCUAACAAAAAAGACAAACCUGCCACAAAGCUUGAGAGCAUCUUCGGAUGCAGAGGCGGCAGCUUUCGGUGGCGCGAUAGCGCUAACGUUCUCAACUAUGACACGCAAAACGCGUGCUCCGUUCAAUGGAGCUUACCAUG | -3.9
2 | GGAUCUUCUCGAUCUAACAAAAAAGACAAACCUGCCACAAAGCUUGAGAGCAUCUUCGGAUGCAGAGGCGGCAGCCUUCGGUGGCGCGAUAGCGCCGACGUUCUCAACUAUGACACGCAAAACGCGUGCUCCGUCGAAUGGAGUUCAUCAUG | -1.76
3 | GGAUCUUCUCGAUCUAACAAAAAAGACAAACCUGCCACAAAGCUUGAGAGCCUUUUCGGAUGCAGAGGCGGCAGCCUUCGGUGGCGCGAUAGCGCCAACGUUCUCAACUAUGACACGCAAAACGCGUGCUCCGUUGAACGGAUUUUAUCAUG | ≤ -4.2
4 | GGAUCUUCUCGAUCUAACAAAAAAGACAAACCUGCCACAAAGCUUGAGAGCAUCUUCGGAUGCAGAGGCGGCAGCCUUCGGUGGCGCGAUAGCGCCAUCGUUCUCAACUAUGACACGCAAAACGCGUGCUCCGAUGAAUGGAGUUUAUCAUG | -1.41
5 | GGAUCUUCUCGAUCUAACAAAAAAGACAAAACUGCCACAAAGCUUGAGAGCAUCUUCGGAUGCAGAGGCGGCAGCCUUCGGUGGCGCGAUAGAGCCAACGUUCUCAACUAUGACACGCAAAACGCGCGCUCCGUUGAAUGGAGUUUAUCAUG | -3.92
6 | GGAUCUUCUCGAUCUAACAAAAAAGACAAACCUGCCACAAAGCUUGAGAGCAUCUUCGGAUGCAGAGGGGGCAGCCUUCGGUGGCGCGAUAGCGCUAACGUUCUCAACUAUGACACUGAAAACGCGUGCUCCGUUGAAUGGAGUUUAUCAUG | -1.49
7 | GGAUCUUCUCGAUCUAACAAAAAAGACAAACCUGCCACAAAGCUUGAGAGCAUCUUCGGAUGCAGAGGCGGCAGCCUUCGGUGGCGCGAUAGCGCCAACGUUCUCAACUAUGACACGCAAAACGCGUGCUCCGUUGAAUGGAGUUUAUCAUG | 0.947
8 | GGAUCUUCUCGAUCUAACAAAAAAGACAAAACUGCCACAAAGUGUGAGAGCAUCUUCGGAUACAGAGGCGACAGCCUUCGGUGGCGCGAGCGCGCCAACGUUCUCAACUAUGACACGCAAAACGCGUGCUCCGUUGAAUGGAGUUUAUCAUG | ≤ -4.2
9 | GGAUCUUCUCGAUCUAACAAAAAAGACAAAACUGCCACAAAGCUUGAGAGCAUCUUCGGAUGCAGAGGCGGCAGGCUUCGGUGGCGCGAUAGCGUCAACGUUCUCAACUAUGACACGUAAAACGCGUGCUCCGUUGAAUGGAGUUUAUCAUG | -3.7
10 | GGAUCUUCUCGAUCUAACAAAAAAGACAAACCUGUCACAAGGCUUGAGAGCAUUUUCGGAUGCAGAGGCGGCAGCCUUCGGUGGCCCGAUAGCGCCAACGUUCUCAACUAUGACACGCAAAACGCGUGCUCCGUUGAAUGGAGUUUAUCAUG | -2.75
11 | GGAUCUUCUCGAUCUAACAAAAAAGACAAACCUGCCACAAGGCUUGAGAGCAUCUUCGGAUGCAGCGCCGGCAGCCUUCGGUGGCGCGAUAGCGGCAACGUUCUCAACUAUGACACGCAAAACGCGUGCUCCGUUGAAUGGAGUUUAUCAUG | ≤ -4.2
12 | GGAUCUUCUCGAUCUAACAAAAAAGACAAACCUGCCACAAAGCUUGAGAGCAUCUUCGGAUGCAGAGGCGGCAGCCUUCGGUGGCGCGAUAGCGAAAACGUUCUCAACUAUGACACGCAAAACGCGUGCUCCGCUGAAUGGAAUGUAUCAUG | -3.45
13 | GGAUCUUCUCGAUCUAACAAAAAAGACAAACAUGCCACAAAGCUUGAGAGCAUCUUCGGAUGCAGAGGCGGCAGCCUUCCAUGGCGCGAUAGCGCCAACGUUCUCAACUAUGACCCGGAAAACGCGUGCUCCAUUGAAUGGAGUUUAUCAUG | ≤ -4.2
14 | GGAUCUUCUCGAUCUAACAAAAAAGACAAAACUGCCACAAAGCUUGAGAGCAUCAUCGGAUGCAGAGGCGGCAGCCUUCGGUGGCGCGAUAGCGUCAACGUUCUCAACUAUGACACGCAAAACGCGUUCUCCGUUGCAUGGAUUUUAUCAUG | ≤ -4.2
15 | GGAUCUUCUCGAUCUAACAAAAAAGACAAAACUGCCACAAAGCUUGAGAGCAUCUUCGGAUGCAGAGGCGGCAGCCUUCGGUGGCGCGAUAGUGCCAACGUUCUCAACUAUGACACGCAAAACGCGUGCUCCGUUGAAUGGAGUUUAUCAUG | 0.0654
16 | GGAUCUUCUCGAUCUAACAAAAAAGACAAAACUGCCACAAAGCUUGAGAGCAUCUUCGGAUGCAGAGGCGGCAGCCUUCGGUGGCGCGAUAGGGUAAACGUUCUCAACUAUGGCACGCAAAACGCGUGCUCCGUUGAAUGGAGUUUAUCAUG | ≤ -4.2
17 | GGAUCUUCUCGAUCUAACAAAAAAGACAAAACUGCCACAAAGCUUGAGAGCAUCUUCGGAUGCAGAGGCGGCAGCCUUCGGUGGCGCGAUAGCGCCAACGUUCUCGACUAUGACACGCAAAACGCGUGCUCCGUUGAAUGGAGUUUAUCAUG | 0.863
18 | GGAUCUUCUCGAUCUAACAAAAAAGACAAACCUGCCACAAAGCUUGAGAGCAUCUUCGGAUGCAGAGGCGGCAGCCUUCGGUGGCGCGAUAGGGCCAACGUUCUCAACUAUGACACGCAAAACGCGUGCUCCGUUGAAUGGAGUUUAUCAUG | -3.06
19 | GGAUCUUCUCGAUCUAACAAAAAAGACAAAACUGCCACAAAGCUUGAGAGCAUCUUCAGAAGCAGAGGCGGCAGCCUUCGGUGUCGCGCUAGCGCCAACGUUCUCAACUAUGACACGCAAAACGCGUGCUCCGUUGAAUGGAGUUUAUCAUG | -3.15
